B1: SNF1-related protein kinase catalytic subunit alpha KIN10 (Arabidopsis thaliana (Mouse-ear cress)), Q38997 (parent)
chain: MDGSGTGSRSGVESILPNYKLGRTLGIGSFGRVKIAEHALTGHKVAIKILNRRKIKNMEMEEKVRREIKILRLFMHPHIIRLYEVIETPTDIYLVMEYVNSGELFDYIVEKGRLQEDEARNFFQQIISGVEYCHRNMVVHRDLKPENLLLDSKCNVKIADFGLSNIMRDGHFLKTSCGSPNYAAPEVISGKLYAGPEVDVWSCGVILYALLCGTLPFDDENIPNLFKKIKGGIYTLPSHLSPGARDLIPRMLVVDPMKRVTIPEIRQHPWFQAHLPRYLAVPPPDTVQQAKKIDEEILQEVINMGFDRNHLIESLRNRTQNDGTVTYYLILDNRFRASSGYLGAEFQETMEGTPRMHPAESVASPVSHRLPGLMEYQGVGLRSQYPVERKWALGLQSRAHPREIMTEVLKALQDLNVCWKKIGHYNMKCRWVPNSSADGMLSNSMHDNNYFGDESSIIENEAAVKSPNVVKFEIQLYKTRDDKYLLDLQRVQGPQFLFLDLCAAFLAQLRVL
partner: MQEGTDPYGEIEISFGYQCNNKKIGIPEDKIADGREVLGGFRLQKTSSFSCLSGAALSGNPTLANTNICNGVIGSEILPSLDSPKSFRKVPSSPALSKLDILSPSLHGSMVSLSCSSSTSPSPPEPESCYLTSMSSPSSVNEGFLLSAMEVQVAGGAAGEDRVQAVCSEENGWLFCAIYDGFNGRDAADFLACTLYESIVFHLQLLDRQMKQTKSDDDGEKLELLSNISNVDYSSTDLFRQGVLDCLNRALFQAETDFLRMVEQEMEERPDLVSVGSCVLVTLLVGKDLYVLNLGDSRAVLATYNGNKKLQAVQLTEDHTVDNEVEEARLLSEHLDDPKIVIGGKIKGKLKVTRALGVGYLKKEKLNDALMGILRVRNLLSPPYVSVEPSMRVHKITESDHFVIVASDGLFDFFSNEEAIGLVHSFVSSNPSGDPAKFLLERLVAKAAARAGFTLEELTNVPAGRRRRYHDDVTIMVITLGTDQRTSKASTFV
B2: SNF1-related protein kinase catalytic subunit alpha KIN10 (Arabidopsis thaliana (Mouse-ear cress)), Q38997 (parent)
chain: B1 chain
partner: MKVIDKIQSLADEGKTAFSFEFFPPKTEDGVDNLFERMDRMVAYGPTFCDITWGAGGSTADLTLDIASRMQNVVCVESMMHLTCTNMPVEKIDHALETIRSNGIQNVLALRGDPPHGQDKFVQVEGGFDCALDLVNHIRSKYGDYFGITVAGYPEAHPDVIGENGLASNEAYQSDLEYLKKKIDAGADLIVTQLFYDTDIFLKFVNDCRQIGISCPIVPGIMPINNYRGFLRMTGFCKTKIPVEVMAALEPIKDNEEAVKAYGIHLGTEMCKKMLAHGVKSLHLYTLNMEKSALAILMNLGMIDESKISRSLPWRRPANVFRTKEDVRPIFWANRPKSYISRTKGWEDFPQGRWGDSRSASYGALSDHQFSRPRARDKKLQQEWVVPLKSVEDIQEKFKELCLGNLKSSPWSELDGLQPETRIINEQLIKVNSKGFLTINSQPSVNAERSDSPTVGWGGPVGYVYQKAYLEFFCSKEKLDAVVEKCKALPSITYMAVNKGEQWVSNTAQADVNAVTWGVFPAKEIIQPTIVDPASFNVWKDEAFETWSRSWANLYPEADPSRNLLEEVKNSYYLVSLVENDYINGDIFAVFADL
B3: SNF1-related protein kinase catalytic subunit alpha KIN10 (Arabidopsis thaliana (Mouse-ear cress)), Q38997 (parent)
chain: B1 chain
partner: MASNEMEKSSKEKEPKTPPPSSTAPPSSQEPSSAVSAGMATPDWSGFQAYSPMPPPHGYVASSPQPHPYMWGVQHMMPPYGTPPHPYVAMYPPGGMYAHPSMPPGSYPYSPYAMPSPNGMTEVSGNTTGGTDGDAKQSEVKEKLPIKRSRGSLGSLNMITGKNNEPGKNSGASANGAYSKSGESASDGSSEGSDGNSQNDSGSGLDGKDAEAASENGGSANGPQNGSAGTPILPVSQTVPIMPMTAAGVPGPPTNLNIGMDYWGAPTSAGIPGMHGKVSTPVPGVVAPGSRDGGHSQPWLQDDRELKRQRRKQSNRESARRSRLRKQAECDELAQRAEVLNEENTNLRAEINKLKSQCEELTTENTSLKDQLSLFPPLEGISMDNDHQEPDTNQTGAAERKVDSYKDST
B4: SNF1-related protein kinase catalytic subunit alpha KIN10 (Arabidopsis thaliana (Mouse-ear cress)), Q38997 (parent)
chain: B1 chain
partner: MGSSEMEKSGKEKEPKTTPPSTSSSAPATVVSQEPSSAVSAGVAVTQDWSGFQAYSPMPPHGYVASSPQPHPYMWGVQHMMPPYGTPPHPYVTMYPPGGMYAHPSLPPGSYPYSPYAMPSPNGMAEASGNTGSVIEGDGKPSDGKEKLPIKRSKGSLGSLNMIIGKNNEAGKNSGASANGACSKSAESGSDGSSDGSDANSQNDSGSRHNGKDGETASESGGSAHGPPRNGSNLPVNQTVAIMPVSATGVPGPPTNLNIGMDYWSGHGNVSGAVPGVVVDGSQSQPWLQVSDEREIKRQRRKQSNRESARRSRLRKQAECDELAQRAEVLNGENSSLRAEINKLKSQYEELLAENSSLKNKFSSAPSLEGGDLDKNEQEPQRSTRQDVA

Variants of: B1
Settings: with p2c40, Q9LUS8

| Variant | effect of a mutation on the interaction |
| --- | --- |
| MDGSGTGSRSGVESILPNYKLGRTLGIGSFGRVKIAEHALTGHKVAIMILNRRKIKNMEMEEKVRREIKILRLFMHPHIIRLYEVIETPTDIYLVMEYVNSGELFDYIVEKGRLQEDEARNFFQQIISGVEYCHRNMVVHRDLKPENLLLDSKCNVKIADFGLSNIMRDGHFLKTSCGSPNYAAPEVISGKLYAGPEVDVWSCGVILYALLCGTLPFDDENIPNLFKKIKGGIYTLPSHLSPGARDLIPRMLVVDPMKRVTIPEIRQHPWFQAHLPRYLAVPPPDTVQQAKKIDEEILQEVINMGFDRNHLIESLRNRTQNDGTVTYYLILDNRFRASSGYLGAEFQETMEGTPRMHPAESVASPVSHRLPGLMEYQGVGLRSQYPVERKWALGLQSRAHPREIMTEVLKALQDLNVCWKKIGHYNMKCRWVPNSSADGMLSNSMHDNNYFGDESSIIENEAAVKSPNVVKFEIQLYKTRDDKYLLDLQRVQGPQFLFLDLCAAFLAQLRVL [K48M] | disrupting interaction strength |

Variants of: B2
Settings: with mthr2_arath MTHFR2, O80585

| Variant | effect of a mutation on the interaction |
| --- | --- |
| MDGSGTGSRSGVESILPNYKLGRTLGIGSFGRVKIAEHALTGHKVAIMILNRRKIKNMEMEEKVRREIKILRLFMHPHIIRLYEVIETPTDIYLVMEYVNSGELFDYIVEKGRLQEDEARNFFQQIISGVEYCHRNMVVHRDLKPENLLLDSKCNVKIADFGLSNIMRDGHFLKTSCGSPNYAAPEVISGKLYAGPEVDVWSCGVILYALLCGTLPFDDENIPNLFKKIKGGIYTLPSHLSPGARDLIPRMLVVDPMKRVTIPEIRQHPWFQAHLPRYLAVPPPDTVQQAKKIDEEILQEVINMGFDRNHLIESLRNRTQNDGTVTYYLILDNRFRASSGYLGAEFQETMEGTPRMHPAESVASPVSHRLPGLMEYQGVGLRSQYPVERKWALGLQSRAHPREIMTEVLKALQDLNVCWKKIGHYNMKCRWVPNSSADGMLSNSMHDNNYFGDESSIIENEAAVKSPNVVKFEIQLYKTRDDKYLLDLQRVQGPQFLFLDLCAAFLAQLRVL [K48M] | disrupting interaction strength |

Variants of: B3
Settings: with bzp16_arath BZIP16, Q501B2

| Variant | effect of a mutation on the interaction |
| --- | --- |
| MDGSGTGSRSGVESILPNYKLGRTLGIGSFGRVKIAEHALTGHKVAIMILNRRKIKNMEMEEKVRREIKILRLFMHPHIIRLYEVIETPTDIYLVMEYVNSGELFDYIVEKGRLQEDEARNFFQQIISGVEYCHRNMVVHRDLKPENLLLDSKCNVKIADFGLSNIMRDGHFLKTSCGSPNYAAPEVISGKLYAGPEVDVWSCGVILYALLCGTLPFDDENIPNLFKKIKGGIYTLPSHLSPGARDLIPRMLVVDPMKRVTIPEIRQHPWFQAHLPRYLAVPPPDTVQQAKKIDEEILQEVINMGFDRNHLIESLRNRTQNDGTVTYYLILDNRFRASSGYLGAEFQETMEGTPRMHPAESVASPVSHRLPGLMEYQGVGLRSQYPVERKWALGLQSRAHPREIMTEVLKALQDLNVCWKKIGHYNMKCRWVPNSSADGMLSNSMHDNNYFGDESSIIENEAAVKSPNVVKFEIQLYKTRDDKYLLDLQRVQGPQFLFLDLCAAFLAQLRVL [K48M] | disrupting interaction strength |

Variants of: B4
Settings: with bzp68_arath BZIP68, Q84LG2

| Variant | effect of a mutation on the interaction |
| --- | --- |
| MDGSGTGSRSGVESILPNYKLGRTLGIGSFGRVKIAEHALTGHKVAIMILNRRKIKNMEMEEKVRREIKILRLFMHPHIIRLYEVIETPTDIYLVMEYVNSGELFDYIVEKGRLQEDEARNFFQQIISGVEYCHRNMVVHRDLKPENLLLDSKCNVKIADFGLSNIMRDGHFLKTSCGSPNYAAPEVISGKLYAGPEVDVWSCGVILYALLCGTLPFDDENIPNLFKKIKGGIYTLPSHLSPGARDLIPRMLVVDPMKRVTIPEIRQHPWFQAHLPRYLAVPPPDTVQQAKKIDEEILQEVINMGFDRNHLIESLRNRTQNDGTVTYYLILDNRFRASSGYLGAEFQETMEGTPRMHPAESVASPVSHRLPGLMEYQGVGLRSQYPVERKWALGLQSRAHPREIMTEVLKALQDLNVCWKKIGHYNMKCRWVPNSSADGMLSNSMHDNNYFGDESSIIENEAAVKSPNVVKFEIQLYKTRDDKYLLDLQRVQGPQFLFLDLCAAFLAQLRVL [K48M] | disrupting interaction strength |
